According to patent publication US20100158924A1, “Expression of the cysteine protease legumain in vascular and inflammatory diseases” (Wyeth, LLC, priority 2006, published 2010):
One block for each molecule: values may come before it. * marks the point of attachment. Fmoc = O=C(OCC1c2ccccc2-c2ccccc21)*

Assays:
mouse legumain = target: T1, mouse legumain (Mus musculus, UniProt O89017); test: HEK293 cell-surface legumain activity assay (Z-AAN-MCA hydrolysis); type: cell-based; conditions: inhibitor at 100 nM, live HEK293 cells overexpressing mouse legumain, pH 5.8, FIG. 7
T1 construct: expressed in transfected cells; host or cells: HEK293 cells infected with adenovirus
T1 sequence (O89017 18-325): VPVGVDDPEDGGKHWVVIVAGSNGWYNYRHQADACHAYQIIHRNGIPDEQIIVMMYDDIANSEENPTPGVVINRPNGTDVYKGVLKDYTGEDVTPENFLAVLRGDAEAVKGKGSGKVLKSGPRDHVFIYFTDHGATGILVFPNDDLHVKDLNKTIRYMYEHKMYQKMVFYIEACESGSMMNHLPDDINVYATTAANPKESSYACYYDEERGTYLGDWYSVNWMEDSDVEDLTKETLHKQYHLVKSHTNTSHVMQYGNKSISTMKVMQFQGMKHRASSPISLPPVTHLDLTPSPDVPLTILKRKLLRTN
Method: HEK293 cells were plated in 96-well black tissue culture plate (BD Biosciences) and infected with adenovirus expressing mouse legumain at MOI of 10. 24 hours post infection, the cells were washed once with legumain assay buffer [39.5 mM citric acid, 125 mM Na2HPO4 (pH 5.8), 1 mM EDTA, 0.8% NaCl], and 50 μl of assay buffer containing 10 nM of the substrate Z-AAN-MCA (Peptide Institute, Louisville, Ky.) was added to each well. The protease inhibitors cystatin C(R&D Systems, Minneapolis, Minn.) or E64 (Sigma) were included in the assay buffer at a concentration of 100 nM. The plates were incubated at 37° C. for 10 min and measured for fluorescence in a VICTOR 3™ fluorescence plate reader (PerkinElmer, Wellesley, Mass.) using an excitation filter of 360 nm and an emission filter of 460 nm. Repeated measurements were carried out once every 5 min over a period of 20 min at room temperature. The increase of fluorescence over time was plotted.

legumain = conditions: background literature; cited from earlier work
HUVECs [1] = test: In vitro wound-healing assay, HUVECs; type: cell-based, human
Method: (§1) HEK293 cells (ATCC, Manassas, Va.) used at passage 10 and HUVECs (Cambrex, Walkersville, Md.) used at passage 3 were seeded onto single-chamber slides (Lab-Tek cat# 177410, Campbell, Calif.). HEK293 cells were cultured to >80% confluence in DMEM supplemented with 10% FBS and 1% penicillin/streptomycin/L-glutamine (Cat# 10378-016, Gibco, Invitrogen, Carlsbad, Calif.), and HUVECs were grown to >90% confluence in EGM (Cat# CC-3124, Cambrex, East Rutherford, N.J.). After washing the cells in serum-free medium, the monolayers were mechanically wounded using a cell scraper (Cat# 3010, Costar [Corning], Fisher Scientific, Pittsburgh, Pa.) to obtain a rectangular denuded area of 2.0×1.7 cm^2. Wounded cells were then incubated in serum-free medium supplemented with 0.05% delipidized BSA (BD Biosciences, Bedford, Mass.) and with VEGF (10 ng/mL, R&D Systems, Minneapolis, Minn.) or legumain (10 ng/mL or 25 ng/mL, R&D Systems, Minneapolis, Minn.) for 24 hours (HEK293 cells) or 20 hours (HUVECs). Wound healing was quantified by measuring the number of cells present in the area of the initial wound using a luminescent cell viability assay (CellTiter-Glo® Assay, Promega, Madison, Wis.).

HUVECs [2] = test: Modified Boyden chamber Matrigel invasion assay, HUVECs; type: cell-based, human
From the text: In a modified Boyden chamber assay, 25,000 serum starved HUVECs loaded into the top chamber were allowed to invade a Matrigel coated PET membrane ([…], Becton Dickinson, BioCoat Angiogenesis System: Endothelial Cell Invasion) in response to purified legumain added to the bottom chamber. Cells that invaded through the Matrigel matrix were quantified using a luminescent cell viability assay (CellTiter-Glo® Assay, Promega, Madison, Wis.). VEGF was used a positive control.

primary human monocytes = test: Human monocytes migration assay (modified Boyden chamber); type: cell-based; conditions: for chemoattractant function: data not shown
Method: Human monocytes were isolated from the blood of healthy donors using the negative selection method with the Monocyte Isolation Kit (Miltenyi Biotech) according to manufacturer's instructions. The purity of isolated monocytes was confirmed by flow cytometry on CD 14-stained cells. Cells were tested in a modified Boyden chamber assay using Multi Screen 96-well filtration plate (Millipore, 5.0 μm pore size). Serum-starved monocytes were added to the top chamber (20,000 cells/well), and serum-free culture medium was added to the bottom chamber with or without purified legumain (R&D Systems). VEGF (R&D Systems) was used as a positive control. Cells that migrated into the bottom chamber were quantified using a luminescent cell viability assay (CellTiter-Glo® Assay, Promega, Madison, Wis.) at 2 hours.

HEK293 cells = test: In vitro wound-healing assay, HEK293 cells; type: cell-based, human; conditions: legumain at 10 ng/mL and 25 ng/mL, 24 hours, p<0.05, FIG. 8
Method: as §1

inhibition of cell-surface legumain activity (mouse legumain): not
Molecule: CC(C)C[C@H](NC(=O)[C@H]1O[C@@H]1C(=O)O)C(=O)NCCCCN=C(N)N (relative stereo) [E64, trans-epoxysuccinyl-L-leucylamido-(4-guanidino)butane, reference compound]
effect on legumain activity (legumain): unaffected

Molecule: [Cu+2] [Cu2+]
effect on legumain activity (legumain): inhibition

Molecule: [Hg+2] [Hg2+]
effect on legumain activity (legumain): inhibition

Molecule: Cc1cccc(C)c1C(=O)OCC(=O)C(CC(N)=O)NC(=O)OCc1ccccc1 (stereo not shown) [MV026630, 2,6-dimethyl-benzoic acid 3-benzyloxycarbonylamino-4-carbamoyl-2-oxo-butyl ester]
effect on legumain activity (legumain): inhibit

Molecule: C[C@H](NC(=O)[C@H](Cc1ccccc1)NC(=O)OCc1ccccc1)C(=O)C=[N+]=[N-] [Z-Phe-Ala-CHN2]
effect on legumain activity (legumain): unaffected

Molecule: CC(=O)N[C@@H](CC(C)C)C(=O)N[C@@H](CC(C)C)C(=O)N[C@H](C=O)CCCNC(=N)N [leupeptin]
effect on legumain activity (legumain): unaffected

Molecule: O=S(=O)(O)c1cc[c]([Hg][Cl])cc1 [p-chloromercuribenzene-sulfonic acid]
effect on legumain activity (legumain): inhibition

Molecule: Fmoc-AENK-NH2
effect on legumain activity (legumain): inhibitor

Molecule: VEGF [reference compound]
increase in migration compared with legumain at 25 ng/mL (HUVECs [1]; VEGF at 10 ng/mL, positive control, FIG. 9): same extent
invasion response compared with 25 ng/mL legumain (HUVECs [2]; 10 ng/mL VEGF, 22 hour period): similar
number of migrated cells compared with legumain at 25 ng/mL (primary human monocytes; VEGF at 10 ng/mL, positive control): similar

B1: legumain: purified proform of the lysosomal cysteine protease legumain (R&D Systems), tested as chemoattractant (protein)
chain: T1 sequence (O89017 18-325)
cell migration relative to control (HUVECs [1]; legumain at 25 ng/mL, 20 hours, p<0.05, FIG. 9): significant increase in cell migration
number of cells invading a Matrigel coated membrane (HUVECs [2]; 22 hour period, FIG. 10): dose-dependent increase
cell invasion relative to control (HUVECs [2]; legumain at 25 ng/mL, p<0.05, FIG. 10): significant increase in cell invasion
cell migration relative to control (HEK293 cells): significant increase in cell migration
fold increase in migration of monocytes relative to control (primary human monocytes; 25 ng/mL, 2 hours): 2.3 fold
migration of human monocytes towards legumain (primary human monocytes; Boyden chamber, 2 hours, FIG. 6): dose-dependent increase
chemoattractant function (primary human monocytes): retain the chemoattractant function
minimal effective concentration of legumain (primary human monocytes; migration of primary human monocytes, Boyden chamber, 2 hours): 25 ng/mL

B2: cystatin M: cystatin reported to inhibit legumain (protein, UniProt Q15828 29-149, looked up)
Cystatin-M: RPQERMVGELRDLSPDDPQVQKAAQAAVASYNMGSNSIYYFRDTHIIKAQSQLVAGIKYFLTMEMGSTDCRKTRVTGDHVDLTTCPLAAGAQQEKLRCDFEVLVVPWQNSSQLLKHNCVQM
effect on legumain activity (legumain): inhibited

B3: ovocystatin: cystatin reported to inhibit legumain (protein, UniProt P01038 24-139, looked up)
Cystatin: SEDRSRLLGAPVPVDENDEGLQRALQFAMAEYNRASNDKYSSRVVRVISAKRQLVSGIKYILQVEIGRTTCPKSSGDLQSCEFHDEPEMAKYTTCTFVVYSIPWLNQIKLLESKCQ
effect on legumain activity (legumain): inhibited

B4: heat-denatured form: heat-denatured form of legumain (protein, UniProt Q99538 18-323, looked up)
Legumain: VPIDDPEDGGKHWVVIVAGSNGWYNYRHQADACHAYQIIHRNGIPDEQIVVMMYDDIAYSEDNPTPGIVINRPNGTDVYQGVPKDYTGEDVTPQNFLAVLRGDAEAVKGIGSGKVLKSGPQDHVFIYFTDHGSTGILVFPNEDLHVKDLNETIHYMYKHKMYRKMVFYIEACESGSMMNHLPDNINVYATTAANPRESSYACYYDEKRSTYLGDWYSVNWMEDSDVEDLTKETLHKQYHLVKSHTNTSHVMQYGNKTISTMKVMQFQGMKRKASSPVPLPPVTHLDLTPSPDVPLTIMKRKLMNTN
modifications: heat-denatured
notes: heat-denatured form of legumain
chemoattractant function (primary human monocytes): retain the chemoattractant function

inhibition of cell-surface legumain activity (mouse legumain): inhibited
B5: cystatin C: protease inhibitor cystatin C (R&D Systems) (protein, UniProt P01034 27-146, looked up)
Cystatin-C: SSPGKPPRLVGGPMDASVEEEGVRRALDFAVGEYNKASNDMYHSRALQVVRARKQIVAGVNYFLDVELGRTTCTKTQPNLDNCPFHDQPHLKRKAFCSFQIYAVPWQGTMTLSKSTCQDA
effect on legumain activity (legumain): inhibited
